T1: Full-length human Flotillin 1 N-terminally tagged with GST (GST-HsFlotillin 1) (human, UniProt O75955 1-427)
T1 sequence: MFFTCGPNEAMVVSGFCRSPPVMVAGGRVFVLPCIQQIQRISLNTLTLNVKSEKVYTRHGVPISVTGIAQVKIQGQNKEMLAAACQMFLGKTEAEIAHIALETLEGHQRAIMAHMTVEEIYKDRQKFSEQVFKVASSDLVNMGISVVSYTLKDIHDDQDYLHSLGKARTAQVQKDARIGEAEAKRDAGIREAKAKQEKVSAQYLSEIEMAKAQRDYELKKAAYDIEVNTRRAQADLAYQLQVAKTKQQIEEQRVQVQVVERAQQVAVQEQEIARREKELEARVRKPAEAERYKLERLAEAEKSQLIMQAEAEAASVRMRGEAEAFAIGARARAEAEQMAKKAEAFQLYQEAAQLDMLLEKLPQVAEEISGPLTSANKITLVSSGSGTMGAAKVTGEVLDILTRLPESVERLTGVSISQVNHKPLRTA

B1: Full-length human Homer 1, N-terminally hexahistidine-tagged (His-HsHomer 1) (natural protein)
chain: MGEQPIFSTRAHVFQIDPNTKKNWVPTSKHAVTVSYFYDSTRNVYRIISLDGSKAIINSTITPNMTFTKTSQKFGQWADSRANTVYGLGFSSEHHLSKFAEKFQEFKEAARLAKEKSQEKMELTSTPSQESAGGDLQSPLTPESINGTDDERTPDVTQNSEPRAEPTQNALPFSHSSAISKHWEAELATLKGNNAKLTAALLESTANVKQWKQQLAAYQEEAERLHKRVTELECVSSQANAVHTHKTELNQTIQELEETLKLKEEEIERLKQEIDNARELQEQRDSLTQKLQEVEIRNKDLEGQLSDLEQRLEKSQNEQEAFRNNLKTLLEILDGKIFELTELRDNLAKLLECS

Columns and labels:
[1] = target: Full-length S. rosetta Flotillin 1 N-terminally tagged with GST (GST-SrFlotillin 1) (S. rosetta); assay: […]
[2] = target: T1, Full-length human Flotillin 1 …; assay: pull-down

Row | Molecule | Kd [1] [nM] | Kd [2] [nM]
1 | Full-length Salpingoeca rosetta Homer, N-terminally hexahistidine-tagged (His-SrHomer) (natural protein) | 960 | 
2 | B1 |  | ~830
